Experimental findings from PMC314469 (2004) are described below.

No end group written: not given here.

First the molecules themselves.
T1: GST-Abp1 SH3 domain (S. cerevisiae, UniProt P15891 532-592)
T1 chain: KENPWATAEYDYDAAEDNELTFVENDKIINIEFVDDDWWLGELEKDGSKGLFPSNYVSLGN

B1: YFR024C SH3 domain (protein)
chain: TSSPKAVALYSFAGEESGDLPFRKGDVITILKKSDSQNDWWTGRVNGREGIFPANYVELV
B2: BOI2 SH3 domain (protein)
chain: GNFPMYIAINEYFKRMEDELDMKPGDKIKVITDDEEYKDGWYFGRNLRTNEEGLYPVVFTQKITV
B3: RVS167 SH3 domain (protein)
chain: PGVETVTALYDYQAQAAGDLSFPAGAVIEIVQRTPDVNEWWTGRYNGQQGVFPGNYVQLNKN

One assay concerns the target T1, GST-Abp1 SH3 domain. Put plainly: SPR.
Broadly, the Kd is the free concentration of one partner at which half of the binding sites on the other are occupied at equilibrium, for simple one-to-one binding. Higher therefore signals a looser complex. For the molecule GKDKSRPPRPPPKP (also: bound to cellulose membrane (SPOT)) [Prk1 peptide(s) on the Abp1 SPOT membrane], the affinity, expressed as Kd, was 22 µM.

With PPPRPKKP (also: bound to cellulose membrane) [Srv2 peptide(s) on the Abp1 SPOT membrane], the Kd is 75 µM.

In turn, RPKRRAPPPVPKKP (also: bound to cellulose SPOT membrane) [Yir003w peptide(s) on the Abp1 SPOT membrane] gave a Kd of 0.92 µM.

As to SKDKKTKPTPPPKP (also: bound to cellulose membrane (SPOT)) [Ark1 peptide(s) on the Abp1 SPOT membrane], binding was put at a Kd of 24 µM. This Kd lies about 26-fold higher than the previous one.

On to LSTKKPRPPVKSKP (also: bound to cellulose membrane) [Scp1 peptide(s) on the Abp1 SPOT membrane], for which binding was characterised by a dissociation constant (Kd) of 14 µM.

The next assay concerns the target B3. Put plainly: SPR. A general note: In SPR one partner is held on a chip, and binding of the other changes the refractive index at the surface.
GKDKSRPPRPPPKP (also: bound to cellulose membrane (SPOT)) [Prk1 peptide(s) on the Abp1 SPOT membrane] gave a dissociation constant Kd of more than 100 µM.

For the molecule RPKRRAPPPVPKKP (also: bound to cellulose SPOT membrane) [Yir003w peptide(s) on the Abp1 SPOT membrane], the Kd was determined as 13 µM. In other words, the double-digit micromolar range.

SKDKKTKPTPPPKP (also: bound to cellulose membrane (SPOT)) [Ark1 peptide(s) on the Abp1 SPOT membrane] showed a Kd of more than 100 µM.

In another assay the target is T1, GST-Abp1 SH3 domain. Kind of assay: SPR. The source holds these as a separate data set.
The molecule GKDKSRPPRPPPKP (also: bound to cellulose membrane (SPOT)) [Prk1 peptide(s) on the Abp1 SPOT membrane] displayed a Kd of 22 µM. This lies in the double-digit micromolar range.

PPPRPKKP (also: bound to cellulose membrane) [Srv2 peptide(s) on the Abp1 SPOT membrane] gave a dissociation constant (Kd) of 75 µM.

In turn, RPKRRAPPPVPKKP (also: bound to cellulose SPOT membrane) [Yir003w peptide(s) on the Abp1 SPOT membrane] returned a Kd of 0.9 µM.

SKDKKTKPTPPPKP (also: bound to cellulose membrane (SPOT)) [Ark1 peptide(s) on the Abp1 SPOT membrane] showed a Kd of 24 µM. Compared with the last molecule, the Kd is about 27-fold higher.

For the molecule LSTKKPRPPVKSKP (also: bound to cellulose membrane) [Scp1 peptide(s) on the Abp1 SPOT membrane], binding was characterised by a dissociation constant (Kd) of 14 µM.

In the next assay the target is YPR171 peptide. Put plainly: SPR.
The molecule B1 displayed a Kd of 4.8 µM.

Molecule B2 registered a Kd of more than 100 µM.

B3 displayed a Kd of 16 µM.

The next assay deals with YJR083C peptide. Put plainly: SPR.
Consider B2, for which the Kd was more than 100 µM.

A further assay deals with YMR192 peptide. Kind of assay: SPR.
B2 displayed a Kd of more than 100 µM.
